{"source": "patent US20160047821", "proteins": {"B1": {"name": "IκB kinase (IKK) complex (endogenous, WT MEFs) (protein)", "chain 1": "MERPPGLRPGAGGPWEMRERLGTGGFGNVSLYQHRELDLKIAIKSCRLELSSKNRERWCHEIQIMKKLDHANVVKACDVPEELNFLINDVPLLAMEYCSGGDLRKLLNKPENCCGLKESQILSLLSDIGSGIRYLHENKIIHRDLKPENIVLQDVGGKTIHKIIDLGYAKDVDQGSLCTSFVGTLQYLAPELFENKPYTATVDYWSFGTMVFECIAGYRPFLHHLQPFTWHEKIKKKDPKCIFACEEMTGEVRFSSHLPQPNSLCSLIVEPMESWLQLMLNWDPQQRGGPIDLTLKQPRCFALMDHILNLKIVHILNMTSAKIISFLLPCDESLHSLQSRIERETGINTGSQELLSETGISLDPRKPASQCVLDGVRGCDSYMVYLFDKSKTVYEGPFASRSLSDCVNYIVQDSKIQLPIIQLRKVWAEAVHYVSGLKEDYSRLFQGQRAAMLSLLRYNANLTKMKNTLISASQQLKAKLEFFRKSIQLDLERYSEQMTYGISSEKMLKAWKEMEEKAIHYSEVGVIGYLEDQIMSLHTEIMELQKSPYGRRQGDLMESLEQRAIDLYKQLKHRPPDHLYSDSTEMVKIIVHTVQSQDRVLKELFGHLSKLLGCKQKIIDLLPKVEVALSNIKEADNTVMFMQGKRQKEIWHLLKIACTQSSARSLVGSSLEGTVTPPVSAWLPPTLADREHPLTCVVTPQDGETLAQMIEENLNCLGHLSTIIREANEDQSSSLMSLDWSWLAE", "chain 2": "MSWSPSLPTQTCGAWEMKERLGTGGFGNVIRWHNQATGEQIAIKQCRQELSPKNRNRWCLEIQIMRRLNHPNVVAARDVPEGMQNLAPNDLPLLAMEYCQGGDLRRYLNQFENCCGLREGAVLTLLSDIASALRYLHENRIIHRDLKPENIVLQQGEKRLIHKIIDLGYAKELDQGSLCTSFVGTLQYLAPELLEQQKYTVTVDYWSFGTLAFECITGFRPFLPNWQPVQWHSKVRQKSEVDIVVSEDLNGAVKFSSSLPFPNNLNSVLAERLEKWLQLMLMWHPRQRGTDPQYGPNGCFRALDDILNLKLVHVLNMVTGTVHTYPVTEDESLQSLKTRIQENTGILETDQELLQKAGLVLLPDKPATQCISDSKTNEGLTLDMDLVFLLDNSKINYETQITPRPPPESVSCILQEPKRNLSFFQLRKVWGQVWHSIQTLKEDCNRLQQGQRAAMMSLLRNNSCLSKMKNAMASTAQQLKAKLDFFKTSIQIDLEKYKEQTEFGITSDKLLLAWREMEQAVEQCGRENDVKHLVERMMALQTDIVDLQRSPMGRKQGGTLDDLEEQARELYRKLREKPRDQRTEGDSQEMVRLLLQAIQSFEKKVRVIYTQLSKTVVCKQKALELLPKVEEVVSLMNEDERTVVRLQEKRQKELWNLLKIACSKVRGPVSGSPDSMNVSRLSHPGQLMSQPSSACDSLPESDKKSEELVAEAHALCSRLESALQDTVKEQDRSFTTLDWSWLQMEDEERCSLEQACD", "chain 3": "MNKHPWKNQLSEMVQPSGGPAEDQDMLGEESSLGKPAMLHLPSEQGTPETLQRCLEENQELRDAIRQSNQMLRERCEELLHFQVSQREEKEFLMCKFQEARKLVERLSLEKLDLRSQREQALKELEQLKKCQQQMAEDKASVKAQVTSLLGELQESQSRLEAATKDRQALEGRIRAVSEQVRQLESEREVLQQQHSVQVDQLRMQNQSVEAALRMERQAASEEKRKLAQLQAAYHQLFQDYDSHIKSSKGMQLEDLRQQLQQAEEALVAKQELIDKLKEEAEQHKIVMETVPVLKAQADIYKADFQAERHAREKLVEKKEYLQEQLEQLQREFNKLKVGCHESARIEDMRKRHVETPQPPLLPAPAHHSFHLALSNQRRSPPEEPPDFCCPKCQYQAPDMDTLQIHVMECIE"}}, "key": {"[1]": {"target": "T1, GST-RelB deletion mutant Δ1 (amino acids 274-321)", "T1 chain": "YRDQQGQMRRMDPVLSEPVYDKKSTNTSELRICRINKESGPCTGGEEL"}, "[2]": {"target": "T2, GST-RelB deletion mutant Δ2 (amino acids 316-377)", "T2 chain": "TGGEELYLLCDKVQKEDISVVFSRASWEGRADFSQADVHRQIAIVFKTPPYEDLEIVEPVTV"}, "[3]": {"target": "T3, GST-RelB deletion mutant Δ3 (amino acids 372-448)", "T3 chain": "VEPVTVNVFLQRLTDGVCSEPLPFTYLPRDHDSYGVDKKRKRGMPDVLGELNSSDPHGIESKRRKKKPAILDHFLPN"}, "[4]": {"target": "T4, GST-RelB deletion mutant Δ4 (amino acids 441-504)", "T4 chain": "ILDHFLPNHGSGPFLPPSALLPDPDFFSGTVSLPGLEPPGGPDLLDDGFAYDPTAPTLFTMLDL"}, "[5]": {"target": "T5, GST-RelB deletion mutant Δ5 (amino acids 499-580)", "T5 chain": "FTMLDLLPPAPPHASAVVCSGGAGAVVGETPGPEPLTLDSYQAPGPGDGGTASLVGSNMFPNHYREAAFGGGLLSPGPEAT"}, "[6]": {"target": "T6, GST-RelB Δ4 point mutant S451A", "T6 chain": "T4 chain with S11A"}, "[7]": {"target": "T7, GST-RelB Δ4 point mutant S458A", "T7 chain": "T4 chain with S18A"}, "[8]": {"target": "T8, GST-RelB Δ4 point mutant S468A", "T8 chain": "T4 chain with S28A"}, "[9]": {"target": "T9, GST-RelB Δ4 point mutant S472A", "T9 chain": "T4 chain with S32A"}}, "note": "Substitutions are numbered along the chain they refer to."}
{"protein": "B1", "values": [{"measurement": "IKKγ kinase assays (phosphorylation of the GST-RelB substrate, 32P autoradiography)", "setting": "[1]", "result": "Only mutant Δ4 was efficiently phosphorylated by IKKγ"}, {"measurement": "IKKγ kinase assays (phosphorylation of the GST-RelB substrate, 32P autoradiography)", "setting": "[2]", "result": "Only mutant Δ4 was efficiently phosphorylated by IKKγ"}, {"measurement": "IKKγ kinase assays (phosphorylation of the GST-RelB substrate, 32P autoradiography)", "setting": "[3]", "result": "Only mutant Δ4 was efficiently phosphorylated by IKKγ"}, {"measurement": "IKKγ kinase assays (phosphorylation of the GST-RelB substrate, 32P autoradiography)", "setting": "[4]", "result": "Only mutant Δ4 was efficiently phosphorylated by IKKγ"}, {"measurement": "IKKγ kinase assays (phosphorylation of the GST-RelB substrate, 32P autoradiography)", "setting": "[5]", "result": "Only mutant Δ4 was efficiently phosphorylated by IKKγ"}, {"measurement": "in vitro kinase assays (phosphorylation of GST-RelB Δ4 point mutants)", "setting": "[6]", "result": "only a point mutation at serine 472 abolished phosphorylation of the Δ4 RelB deletion mutant"}, {"measurement": "in vitro kinase assays (phosphorylation of GST-RelB Δ4 point mutants)", "setting": "[7]", "result": "only a point mutation at serine 472 abolished phosphorylation of the Δ4 RelB deletion mutant"}, {"measurement": "in vitro kinase assays (phosphorylation of GST-RelB Δ4 point mutants)", "setting": "[8]", "result": "only a point mutation at serine 472 abolished phosphorylation of the Δ4 RelB deletion mutant"}, {"measurement": "in vitro kinase assays (phosphorylation of GST-RelB Δ4 point mutants)", "setting": "[9]", "result": "only a point mutation at serine 472 abolished phosphorylation of the Δ4 RelB deletion mutant"}]}
